“And” between values parts separate entries of the source, which are not always exact repeats. Identical values can stand only once.
Legend:
[1] = substrate: NC(=O)c1ccc[n+]([C@@H]2O[C@H](COP(=O)([O-])OP(=O)(O)OC[C@H]3O[C@@H](n4cnc5c(N)ncnc54)[C@H](O)[C@@H]3O)[C@@H](O)[C@H]2O)c1; test: Enzyme kinetics with variable NAD^+ (in vitro deacetylation, Michaelis-Menten), SIRT1; format: biochemical, mouse; details: other: SIRT1 with the H3K9Ac peptide
Description: (§1) In the case of the SIRT1 enzymatic reaction, 8 µM peptide was incubated in 50 µL reaction buffer containing 10 mM NaCl, 10 mM KCl, 20 mM Tris-HCl pH 8.0, 1.0 mM NAD^+, and 1 mM DTT, with or without 1 µg recombinant SIRT1. The reaction mixtures were incubated for 24 h for SIRT7 or 2 h for SIRT1 at 37 °C.
(§2) For enzyme kinetics with variable concentrations of the NAD^+ substrate, an in vitro deacylation assay was performed using wild-type SIRT7 and SIRT1 with serial dilutions of the NAD^+ substrate. The reaction was incubated at 37 °C for the appropriate time, which was within the linear part of the progression curve (60 min for SIRT7 and 10 min for SIRT1). […] Each enzymatic assay was conducted in triplicate, and the resulting data were plotted and fitted to the Michaelis–Menten equation using GraphPad Prism version 8.0.2 (GraphPad Software, Boston, MA, USA).
(§3) The general conditions for electrospray ionization-MS were as follows: nebulizer gas, N2, delivered at 50 psi; nebulizer gas temperature, 250 °C; capillary voltage, 3500 V; and collision gas, G1 grade N2 (Taiyo Nippon Sanso Corporation, Tokyo, Japan).

[2] = substrate: NC(=O)c1ccc[n+]([C@@H]2O[C@H](COP(=O)([O-])OP(=O)(O)OC[C@H]3O[C@@H](n4cnc5c(N)ncnc54)[C@H](O)[C@@H]3O)[C@@H](O)[C@H]2O)c1; test: Enzyme kinetics with variable NAD^+ (in vitro deacylation, Michaelis-Menten), SIRT7 in presence of RNA; format: biochemical, mouse; details: for Km: in the presence of RNA; for kcat: NAD^+-dependent deacylation
Description: as §1, §2, §3

B1: SIRT1 (Mus musculus) (protein)
chain: MADEVALALQAAGSPSAAAAMEAASQPADEPLRKRPRRDGPGLGRSPGEPSAAVAPAAAGCEAASAAAPAALWREAAGAAASAEREAPATAVAGDGDNGSGLRREPRAADDFDDDEGEEEDEAAAAAAAAAIGYRDNLLLTDGLLTNGFHSCESDDDDRTSHASSSDWTPRPRIGPYTFVQQHLMIGTDPRTILKDLLPETIPPPELDDMTLWQIVINILSEPPKRKKRKDINTIEDAVKLLQECKKIIVLTGAGVSVSCGIPDFRSRDGIYARLAVDFPDLPDPQAMFDIEYFRKDPRPFFKFAKEIYPGQFQPSLCHKFIALSDKEGKLLRNYTQNIDTLEQVAGIQRILQCHGSFATASCLICKYKVDCEAVRGDIFNQVVPRCPRCPADEPLAIMKPEIVFFGENLPEQFHRAMKYDKDEVDLLIVIGSSLKVRPVALIPSSIPHEVPQILINREPLPHLHFDVELLGDCDVIINELCHRLGGEYAKLCCNPVKLSEITEKPPRPQKELVHLSELPPTPLHISEDSSSPERTVPQDSSVIATLVDQATNNNVNDLEVSESSCVEEKPQEVQTSRNVENINVENPDFKAVGSSTADKNERTSVAETVRKCWPNRLAKEQISKRLEGNQYLFVPPNRYIFHGAEVYSDSEDDVLSSSSCGSNSDSGTCQSPSLEEPLEDESEIEEFYNGLEDDTERPECAGGSGFGADGGDQEVVNEAIATRQELTDVNYPSDKS
notes: HaloTag (N, cleaved yes); made in house; host or cells: E. coli K12 KRX
Protein B1 has a Km [1] of 14 µM.

B2: SIRT7 (Mus musculus) (protein)
chain: MAAGGGLSRSERKAAERVRRLREEQQRERLRQVSRILRKAAAERSAEEGRLLAESEDLVTELQGRSRRREGLKRRQEEVCDDPEELRRKVRELAGAVRSARHLVVYTGAGISTAASIPDYRGPNGVWTLLQKGRPVSAADLSEAEPTLTHMSITRLHEQKLVQHVVSQNCDGLHLRSGLPRTAISELHGNMYIEVCTSCIPNREYVRVFDVTERTALHRHLTGRTCHKCGTQLRDTIVHFGERGTLGQPLNWEAATEAASKADTILCLGSSLKVLKKYPRLWCMTKPPSRRPKLYIVNLQWTPKDDWAALKLHGKCDDVMQLLMNELGLEIPVYNRWQDPIFSLATPLRAGEEGSHSRKSLCRSREEAPPGDQSDPLASAPPILGGWFGRGCAKRAKRKKVA
notes: as for B1
B2 gave a kcat/Km ([2]; other: acetyl H3K18 peptide) of 0.844 ± 0.024 M⁻¹ s⁻¹, a Km ([2]; other: acetyl H3K18 peptide (H3K18Ac)) of 445.3 ± 28.5 µM and a kcat ([2]; other: acetyl H3K18 peptide) of 0.000376 ± 1.52e-05 s⁻¹. For the same protein, the kcat/Km ([2]; other: butyryl H3K18 peptide) was 2.10 ± 0.061 M⁻¹ s⁻¹, the kcat ([2]; other: butyryl H3K18 peptide) was 0.00143 ± 0.00015 s⁻¹ and the Km ([2]; other: butyryl H3K18 peptide) was 678.6 ± 83.6 µM. The kcat/Km ([2]; other: myristoyl H3K18 peptide) was 11.9 ± 0.695 M⁻¹ s⁻¹, the kcat ([2]; other: myristoyl H3K18 peptide) was 0.00183 ± 8.23e-05 s⁻¹ and the Km ([2]; other: myristoyl H3K18 peptide) was 153 µM and 153.2 ± 8.8 µM. It also gave a kcat/Km ([2]; other: octanoyl H3K18 peptide) of 3.74 ± 0.124 M⁻¹ s⁻¹, a kcat ([2]; other: octanoyl H3K18 peptide) of 0.00176 ± 6.48e-05 s⁻¹ and a Km ([2]; other: octanoyl H3K18 peptide) of 470.0 ± 16.7 µM. The kcat/Km ([2]; other: palmitoyl H3K18 peptide) was 2.35 ± 0.224 M⁻¹ s⁻¹, the kcat ([2]; other: palmitoyl H3K18 peptide) was 0.00149 ± 0.000101 s⁻¹ and the Km ([2]; other: palmitoyl H3K18 peptide) was 633 µM and 633.5 ± 37.5 µM. The kcat/Km ([2]; other: propionyl H3K18 peptide) was 10.9 ± 0.633 M⁻¹ s⁻¹, the kcat ([2]; other: propionyl H3K18 peptide) was 0.00202 ± 4.14e-05 s⁻¹ and the Km ([2]; other: propionyl H3K18 peptide) was 185.1 ± 7.6 µM. For the same protein, the kcat/Km ([2]; other: succinyl H3K18 peptide) was 2.01 ± 0.390 M⁻¹ s⁻¹, the kcat ([2]; other: succinyl H3K18 peptide) was 0.000224 ± 1.68e-05 s⁻¹ and the Km ([2]; other: succinyl H3K18 peptide) was 114 µM and 114.9 ± 30.4 µM.
